Consider one molecule from patent US20140141019A1 (INSERM INSTITUT NATIONALDE LA SENTE ET DE LA RECHERCHE …, published 2014).

Ends that are not written are not given here.

Assay [1] deals with T1, human HER4-Fc (recombinant human extracellular domain ErbB4/HER4 Fc chimera, R&D Systems) (human, UniProt Q15303 26-651).
T1 construct: extracellular domain; Bought protein; Fc part of the bought chimera not given
T1 sequence (looked up): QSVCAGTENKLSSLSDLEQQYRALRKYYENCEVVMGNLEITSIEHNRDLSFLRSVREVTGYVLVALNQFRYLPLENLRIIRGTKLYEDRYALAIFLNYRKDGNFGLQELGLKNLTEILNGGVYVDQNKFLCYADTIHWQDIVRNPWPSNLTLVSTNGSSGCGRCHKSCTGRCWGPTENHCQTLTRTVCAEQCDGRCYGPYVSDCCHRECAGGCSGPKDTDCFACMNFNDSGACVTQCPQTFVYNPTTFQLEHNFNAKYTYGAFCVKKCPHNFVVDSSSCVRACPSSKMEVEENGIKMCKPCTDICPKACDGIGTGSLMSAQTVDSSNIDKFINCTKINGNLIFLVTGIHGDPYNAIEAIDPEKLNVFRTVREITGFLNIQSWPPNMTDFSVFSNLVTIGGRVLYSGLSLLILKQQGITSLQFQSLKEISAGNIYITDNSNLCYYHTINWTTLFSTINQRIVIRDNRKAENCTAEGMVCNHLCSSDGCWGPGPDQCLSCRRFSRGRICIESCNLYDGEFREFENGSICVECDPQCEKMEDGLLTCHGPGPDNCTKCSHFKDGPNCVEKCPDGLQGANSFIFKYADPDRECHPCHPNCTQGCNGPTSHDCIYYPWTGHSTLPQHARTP
The assay can be described thus: ELISA, coated HER4-Fc 50 ng. From the text: The bound IgG were detected by using HRP-F(ab′) 2 goat anti human IgG F(ab′)2 specific (Interchim).
For orientation: In an ELISA, binding on a coated surface is turned into a signal by an enzyme label.

Assay [2] has as its target T2, mouse HER3-Fc (recombinant mouse extracellular domain ErbB3/HER3 Fc chimera, R&D Systems) (mouse, UniProt Q61526 20-641).
T2 construct: extracellular domain; Bought protein; also called murine HER3; Fc part of the bought chimera not given
The assay can be described thus: ELISA, coated mouse HER3-Fc 250 ng/ml.

Assay [3] addresses T3, HER3 peptide 343-357 DFLITGLNGDPWHKI (human, also: cellulose-bound).
T3 construct: SPOT peptide
T3 peptide: Ac-DFLITGLNGDPWHKI
The assay can be described thus: SPOT peptide array, antibody at 1 µg/ml.

Assay [4] concerns the target T4, EGFR on transfected NIH 3T3 cells (human, UniProt P00533 25-1210).
T4 construct: whole, on cells
The assay can be described thus: flow cytometry, transfected NIH 3T3 cells. The method, then:
(§1) After three washes in PBS-BSA 0.1%, cells were incubated with the fluorescein-conjugated anti-human IgG-Fragment Fc specific (Sigma) at 4° C. in the dark for 45 min. Cells were then washed three times and suspended in PBS for analysis using an EPICS flow cytometer (Beckman-Coulter, Fullerton, Calif.).
A general note: Flow cytometry measures light scatter and fluorescence of single cells or particles in a stream.

The target in assay [5] is T5, HER2 on transfected NIH 3T3 cells (human, UniProt P04626 23-1255).
T5 construct: whole, on cells
The assay is described as follows: flow cytometry, transfected NIH 3T3 cells. As for the experimental part: as §1

Assay [6] concerns the target T6, EGFR/HER4 on transfected NIH 3T3 cells (human, UniProt P00533 25-1210; Q15303 26-1308).
T6 construct: whole, on cells; NIH 3T3 cells transfected with both EGFR and HER4
The assay can be described thus: flow cytometry, transfected NIH 3T3 cells. The method, then: as §1

The target of assay [7] is T4, EGFR on transfected NIH 3T3 cells. The assay can be described thus: flow cytometry, EGFR-transfected NIH-3T3 cells. As for the experimental part: as §1
In assay [8] the target is T5, HER2 on transfected NIH 3T3 cells. The assay is described as follows: flow cytometry, HER2-transfected NIH-3T3 cells. The method, then:
as §1

Assay [9] has as its target T7, HER3 receptor on cells (HER3-transfected NIH 3T3 fibroblasts; SKBR3 cells; BxPC3 cells) (human, UniProt P21860 20-1342).
T7 construct: whole, on cells; also called ErbB3
The assay is described as follows: flow cytometry, HER3-transfected NIH-3T3 cells. As for the experimental part:
as §1

In assay [10] the target is T6, EGFR/HER4 on transfected NIH 3T3 cells. The assay can be described thus: flow cytometry, EGFR/HER4-transfected NIH-3T3 cells. As for the experimental part: as §1
Assay [11] deals with T8, HER2/HER3 complex on transfected NIH 3T3 cells (human, UniProt P04626 23-1255; P21860 20-1342).
T8 construct: whole, on cells; NIH 3T3 cells transfected with both HER2 and HER3; also called HER2-HER3 heterodimer
The assay is described as follows: flow cytometry, HER2/HER3-transfected NIH-3T3 cells. As for the experimental part: as §1

T2 sequence (Q61526 20-641, change not shown): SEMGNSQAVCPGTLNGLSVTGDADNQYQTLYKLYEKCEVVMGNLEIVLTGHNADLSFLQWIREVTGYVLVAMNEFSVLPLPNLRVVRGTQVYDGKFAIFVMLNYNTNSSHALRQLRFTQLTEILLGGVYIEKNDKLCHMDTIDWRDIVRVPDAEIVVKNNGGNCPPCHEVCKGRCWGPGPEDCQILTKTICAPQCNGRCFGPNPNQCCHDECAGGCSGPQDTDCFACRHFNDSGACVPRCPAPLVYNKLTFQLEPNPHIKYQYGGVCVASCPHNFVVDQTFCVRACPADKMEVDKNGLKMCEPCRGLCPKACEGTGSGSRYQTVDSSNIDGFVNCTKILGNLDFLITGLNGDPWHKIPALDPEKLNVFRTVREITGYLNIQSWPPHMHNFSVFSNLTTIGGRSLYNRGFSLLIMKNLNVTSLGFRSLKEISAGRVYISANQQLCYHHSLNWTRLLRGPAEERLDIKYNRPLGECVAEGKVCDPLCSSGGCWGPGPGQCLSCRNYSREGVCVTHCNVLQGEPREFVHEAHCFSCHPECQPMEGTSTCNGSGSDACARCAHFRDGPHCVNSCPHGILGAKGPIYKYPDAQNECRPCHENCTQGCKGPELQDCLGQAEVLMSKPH

B1: mAb H4B-121 (purified human IgG) (antibody, V domains shown)
VH: EVQLVESGGGLVQPGRSLRLSCAASGFTFDDYAMHWVRQAPGKGLEWVSGISWNSGSIGYADSVKGRFTISRDNAKNSLYLQMNSLRAEDTAVYYCAREGQWPNYGMDVWGQGTTVTVSS
VL: QSVLTQPPSVSAAPGQKVTISCPGSSSNIGNNYVSWYQQLPGTAPKLLIYDNNERPSGIPDRFSGSTSGTSATLDITDLQAEDEATYYCGAWDNTLGVYVLGTGTQLTVL
notes: expressed as human IgG1 in HEK 293 cells
Consider B1, for which the binding result in [1] is reported as “no binding (tested: 0.5 µg/ml)”; in assay [2] it was “binds”; in assay [3] it was “binds”; in [4], “no binding”; in assay [5], “no binding”; in assay [6], “no binding”. Besides, the geometric mean in assay [7] stood at 0.33; in assay [8], 0.56; in assay [9], 12.3; in assay [10], 0.67; in assay [11], 70.4.
